Results taken from IntAct's records for PubMed 24805197.

B1: Sarcoplasmic reticulum histidine-rich calcium-binding protein (Homo sapiens), P23327 (parent)
chain: MGHHRPWLHASVLWAGVASLLLPPAMTQQLRGDGLGFRNRNNSTGVAGLSEEASAELRHHLHSPRDHPDENKDVSTENGHHFWSHPDREKEDEDVSKEYGHLLPGHRSQDHKVGDEGVSGEEVFAEHGGQARGHRGHGSEDTEDSAEHRHHLPSHRSHSHQDEDEDEVVSSEHHHHILRHGHRGHDGEDDEGEEEEEEEEEEEEASTEYGHQAHRHRGHGSEEDEDVSDGHHHHGPSHRHQGHEEDDDDDDDDDDDDDDDDVSIEYRHQAHRHQGHGIEEDEDVSDGHHHRDPSHRHRSHEEDDNDDDDVSTEYGHQAHRHQDHRKEEVEAVSGEHHHHVPDHRHQGHRDEEEDEDVSTERWHQGPQHVHHGLVDEEEEEEEITVQFGHYVASHQPRGHKSDEEDFQDEYKTEVPHHHHHRVPREEDEEVSAELGHQAPSHRQSHQDEETGHGQRGSIKEMSHHPPGHTVVKDRSHLRKDDSEEEKEKEEDPGSHEEDDESSEQGEKGTHHGSRDQEDEEDEEEGHGLSLNQEEEEEEDKEEEEEEEDEERREERAEVGAPLSPDHSEEEEEEEEGLEEDEPRFTIIPNPLDRREEAGGASSEEESGEDTGPQDAQEYGNYQPGSLCGYCSFCNRCTECESCHCDEENMGEHCDQCQHCQFCYLCPLVCETVCAPGSYVDYFSSSLYQALADMLETPEP

Variants of: B1
Conditions: with ryr2_mouse Ryr2, E9Q401
Sequence of ryr2_mouse Ryr2, E9Q401 (E9Q401 whole entry): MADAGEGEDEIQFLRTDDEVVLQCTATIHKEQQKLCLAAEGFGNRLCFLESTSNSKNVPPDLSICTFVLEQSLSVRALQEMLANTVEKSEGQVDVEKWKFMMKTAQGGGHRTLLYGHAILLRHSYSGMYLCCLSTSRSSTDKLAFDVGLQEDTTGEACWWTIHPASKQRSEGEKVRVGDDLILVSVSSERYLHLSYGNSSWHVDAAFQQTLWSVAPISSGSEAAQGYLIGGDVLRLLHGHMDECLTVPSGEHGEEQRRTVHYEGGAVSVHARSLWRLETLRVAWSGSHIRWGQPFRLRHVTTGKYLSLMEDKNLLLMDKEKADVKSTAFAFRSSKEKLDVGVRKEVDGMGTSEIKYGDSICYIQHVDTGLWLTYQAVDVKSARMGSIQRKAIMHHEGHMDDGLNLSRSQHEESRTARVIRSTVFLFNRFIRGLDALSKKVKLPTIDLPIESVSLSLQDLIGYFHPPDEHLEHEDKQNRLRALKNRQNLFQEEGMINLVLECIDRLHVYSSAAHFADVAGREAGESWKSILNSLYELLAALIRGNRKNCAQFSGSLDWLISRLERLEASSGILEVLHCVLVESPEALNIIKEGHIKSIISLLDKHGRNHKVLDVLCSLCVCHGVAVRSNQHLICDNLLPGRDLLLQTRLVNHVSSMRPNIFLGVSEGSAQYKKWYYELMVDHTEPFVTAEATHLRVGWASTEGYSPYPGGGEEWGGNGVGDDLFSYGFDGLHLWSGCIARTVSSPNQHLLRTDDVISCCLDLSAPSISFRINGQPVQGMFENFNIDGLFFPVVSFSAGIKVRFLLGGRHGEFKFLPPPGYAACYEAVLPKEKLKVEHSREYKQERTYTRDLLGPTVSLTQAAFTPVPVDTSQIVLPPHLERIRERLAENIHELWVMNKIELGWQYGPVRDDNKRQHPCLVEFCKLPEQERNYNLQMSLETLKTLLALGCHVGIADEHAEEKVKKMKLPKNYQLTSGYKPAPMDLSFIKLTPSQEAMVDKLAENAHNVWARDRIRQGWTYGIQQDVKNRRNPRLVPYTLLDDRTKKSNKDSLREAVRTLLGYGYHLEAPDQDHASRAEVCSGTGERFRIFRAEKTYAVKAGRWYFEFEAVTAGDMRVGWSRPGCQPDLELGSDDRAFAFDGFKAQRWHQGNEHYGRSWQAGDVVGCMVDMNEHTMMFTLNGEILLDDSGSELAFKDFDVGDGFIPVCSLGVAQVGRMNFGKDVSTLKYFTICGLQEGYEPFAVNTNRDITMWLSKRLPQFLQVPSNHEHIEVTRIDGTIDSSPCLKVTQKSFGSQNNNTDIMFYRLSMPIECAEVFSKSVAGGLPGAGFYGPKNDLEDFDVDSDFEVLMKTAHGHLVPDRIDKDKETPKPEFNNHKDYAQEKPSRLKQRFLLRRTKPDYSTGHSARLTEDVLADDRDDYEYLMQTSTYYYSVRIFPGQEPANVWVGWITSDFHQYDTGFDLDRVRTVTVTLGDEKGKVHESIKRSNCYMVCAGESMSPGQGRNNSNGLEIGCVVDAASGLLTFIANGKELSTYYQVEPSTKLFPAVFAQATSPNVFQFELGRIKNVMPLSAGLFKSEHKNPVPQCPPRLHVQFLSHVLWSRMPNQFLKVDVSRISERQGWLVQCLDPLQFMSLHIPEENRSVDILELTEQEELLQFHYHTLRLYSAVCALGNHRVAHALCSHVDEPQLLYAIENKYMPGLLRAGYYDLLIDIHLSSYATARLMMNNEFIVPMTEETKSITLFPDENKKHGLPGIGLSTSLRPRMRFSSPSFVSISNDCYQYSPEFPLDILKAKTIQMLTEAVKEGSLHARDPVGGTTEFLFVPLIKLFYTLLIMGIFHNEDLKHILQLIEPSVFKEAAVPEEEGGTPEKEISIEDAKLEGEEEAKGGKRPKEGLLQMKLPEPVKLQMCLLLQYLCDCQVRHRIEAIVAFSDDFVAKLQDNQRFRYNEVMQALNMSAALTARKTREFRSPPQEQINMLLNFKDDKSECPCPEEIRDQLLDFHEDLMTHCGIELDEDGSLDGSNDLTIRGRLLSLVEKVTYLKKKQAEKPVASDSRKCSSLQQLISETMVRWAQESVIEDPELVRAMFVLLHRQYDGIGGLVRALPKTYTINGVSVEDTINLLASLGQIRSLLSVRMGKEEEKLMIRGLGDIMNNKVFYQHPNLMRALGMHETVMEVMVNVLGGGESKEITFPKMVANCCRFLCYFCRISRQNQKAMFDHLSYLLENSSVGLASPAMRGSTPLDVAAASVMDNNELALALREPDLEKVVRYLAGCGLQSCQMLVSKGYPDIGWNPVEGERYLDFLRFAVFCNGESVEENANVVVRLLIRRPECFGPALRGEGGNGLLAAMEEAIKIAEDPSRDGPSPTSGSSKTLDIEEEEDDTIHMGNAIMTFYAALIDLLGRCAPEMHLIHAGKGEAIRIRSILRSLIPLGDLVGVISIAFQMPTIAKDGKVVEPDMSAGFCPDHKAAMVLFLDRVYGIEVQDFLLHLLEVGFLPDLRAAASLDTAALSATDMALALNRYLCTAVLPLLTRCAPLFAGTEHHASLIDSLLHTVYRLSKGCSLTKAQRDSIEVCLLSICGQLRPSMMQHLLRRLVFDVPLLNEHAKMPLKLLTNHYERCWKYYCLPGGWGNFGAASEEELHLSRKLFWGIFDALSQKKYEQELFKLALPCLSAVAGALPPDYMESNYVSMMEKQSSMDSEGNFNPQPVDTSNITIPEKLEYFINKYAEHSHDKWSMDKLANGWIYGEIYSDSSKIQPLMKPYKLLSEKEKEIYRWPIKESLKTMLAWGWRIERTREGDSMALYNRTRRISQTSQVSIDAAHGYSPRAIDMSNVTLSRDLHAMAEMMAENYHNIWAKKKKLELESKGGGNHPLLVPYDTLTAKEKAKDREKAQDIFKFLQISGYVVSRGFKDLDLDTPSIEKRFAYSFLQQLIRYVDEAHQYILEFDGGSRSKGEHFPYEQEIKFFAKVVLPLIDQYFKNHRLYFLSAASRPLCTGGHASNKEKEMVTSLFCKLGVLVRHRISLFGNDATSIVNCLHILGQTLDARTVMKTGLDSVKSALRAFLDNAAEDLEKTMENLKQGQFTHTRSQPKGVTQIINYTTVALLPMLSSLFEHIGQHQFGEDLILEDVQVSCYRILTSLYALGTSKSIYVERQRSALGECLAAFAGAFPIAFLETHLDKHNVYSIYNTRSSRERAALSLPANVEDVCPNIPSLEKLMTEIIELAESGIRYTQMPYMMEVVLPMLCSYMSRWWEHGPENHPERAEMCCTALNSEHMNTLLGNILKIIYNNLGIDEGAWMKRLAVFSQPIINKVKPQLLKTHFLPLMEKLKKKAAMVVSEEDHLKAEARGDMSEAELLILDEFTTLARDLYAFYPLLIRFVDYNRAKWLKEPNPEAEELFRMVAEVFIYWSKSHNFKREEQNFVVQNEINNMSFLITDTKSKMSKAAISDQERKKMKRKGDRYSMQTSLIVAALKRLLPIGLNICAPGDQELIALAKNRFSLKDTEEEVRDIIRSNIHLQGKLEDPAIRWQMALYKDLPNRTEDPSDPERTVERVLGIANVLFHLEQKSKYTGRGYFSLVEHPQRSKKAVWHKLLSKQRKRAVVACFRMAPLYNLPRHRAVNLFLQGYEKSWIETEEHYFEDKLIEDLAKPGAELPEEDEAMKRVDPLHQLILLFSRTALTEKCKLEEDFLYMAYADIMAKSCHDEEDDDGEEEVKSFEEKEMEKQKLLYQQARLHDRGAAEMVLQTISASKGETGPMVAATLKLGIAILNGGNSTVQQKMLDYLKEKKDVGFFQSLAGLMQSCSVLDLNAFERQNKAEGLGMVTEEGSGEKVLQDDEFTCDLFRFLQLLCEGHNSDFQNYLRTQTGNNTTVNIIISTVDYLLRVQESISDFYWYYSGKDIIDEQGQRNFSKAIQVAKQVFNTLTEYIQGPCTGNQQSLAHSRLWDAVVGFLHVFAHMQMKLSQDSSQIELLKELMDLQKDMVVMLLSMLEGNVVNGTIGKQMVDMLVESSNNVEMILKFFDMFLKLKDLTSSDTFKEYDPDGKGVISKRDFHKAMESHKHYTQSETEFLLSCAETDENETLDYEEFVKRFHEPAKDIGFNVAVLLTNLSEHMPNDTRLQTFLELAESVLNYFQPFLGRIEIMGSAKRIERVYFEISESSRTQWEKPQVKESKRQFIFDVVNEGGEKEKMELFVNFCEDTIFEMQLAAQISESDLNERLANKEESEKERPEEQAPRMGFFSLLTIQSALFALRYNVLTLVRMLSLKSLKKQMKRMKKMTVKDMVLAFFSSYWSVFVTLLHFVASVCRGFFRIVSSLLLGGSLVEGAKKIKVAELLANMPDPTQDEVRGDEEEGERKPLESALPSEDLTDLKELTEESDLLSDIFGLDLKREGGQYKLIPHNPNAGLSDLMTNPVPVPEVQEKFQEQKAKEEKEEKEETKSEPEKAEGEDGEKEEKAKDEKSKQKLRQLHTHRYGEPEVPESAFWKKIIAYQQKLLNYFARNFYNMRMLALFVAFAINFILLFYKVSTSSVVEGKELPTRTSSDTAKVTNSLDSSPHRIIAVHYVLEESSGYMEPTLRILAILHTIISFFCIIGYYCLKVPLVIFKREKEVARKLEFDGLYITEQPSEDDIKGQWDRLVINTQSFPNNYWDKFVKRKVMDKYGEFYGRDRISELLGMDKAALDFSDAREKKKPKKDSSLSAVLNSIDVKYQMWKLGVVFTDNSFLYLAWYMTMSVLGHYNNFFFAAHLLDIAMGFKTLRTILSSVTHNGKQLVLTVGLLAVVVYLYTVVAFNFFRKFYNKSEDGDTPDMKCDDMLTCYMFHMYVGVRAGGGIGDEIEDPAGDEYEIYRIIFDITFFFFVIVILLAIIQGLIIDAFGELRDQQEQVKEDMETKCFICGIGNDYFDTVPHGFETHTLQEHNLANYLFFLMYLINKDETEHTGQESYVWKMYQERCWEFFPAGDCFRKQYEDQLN

Row | Variant | effect of a mutation on the interaction
1 | S96A | decreasing interaction strength
